Source: patent US20210008161A1 (CRISPR THERAPEUTICS, published 2021)

Target: p53-binding protein 1 (53BP1) (human, UniProt Q12888 1-1972)
Assay: cell-based or functional assay

Chain of p53-binding protein 1 (53BP1) (Q12888 whole entry): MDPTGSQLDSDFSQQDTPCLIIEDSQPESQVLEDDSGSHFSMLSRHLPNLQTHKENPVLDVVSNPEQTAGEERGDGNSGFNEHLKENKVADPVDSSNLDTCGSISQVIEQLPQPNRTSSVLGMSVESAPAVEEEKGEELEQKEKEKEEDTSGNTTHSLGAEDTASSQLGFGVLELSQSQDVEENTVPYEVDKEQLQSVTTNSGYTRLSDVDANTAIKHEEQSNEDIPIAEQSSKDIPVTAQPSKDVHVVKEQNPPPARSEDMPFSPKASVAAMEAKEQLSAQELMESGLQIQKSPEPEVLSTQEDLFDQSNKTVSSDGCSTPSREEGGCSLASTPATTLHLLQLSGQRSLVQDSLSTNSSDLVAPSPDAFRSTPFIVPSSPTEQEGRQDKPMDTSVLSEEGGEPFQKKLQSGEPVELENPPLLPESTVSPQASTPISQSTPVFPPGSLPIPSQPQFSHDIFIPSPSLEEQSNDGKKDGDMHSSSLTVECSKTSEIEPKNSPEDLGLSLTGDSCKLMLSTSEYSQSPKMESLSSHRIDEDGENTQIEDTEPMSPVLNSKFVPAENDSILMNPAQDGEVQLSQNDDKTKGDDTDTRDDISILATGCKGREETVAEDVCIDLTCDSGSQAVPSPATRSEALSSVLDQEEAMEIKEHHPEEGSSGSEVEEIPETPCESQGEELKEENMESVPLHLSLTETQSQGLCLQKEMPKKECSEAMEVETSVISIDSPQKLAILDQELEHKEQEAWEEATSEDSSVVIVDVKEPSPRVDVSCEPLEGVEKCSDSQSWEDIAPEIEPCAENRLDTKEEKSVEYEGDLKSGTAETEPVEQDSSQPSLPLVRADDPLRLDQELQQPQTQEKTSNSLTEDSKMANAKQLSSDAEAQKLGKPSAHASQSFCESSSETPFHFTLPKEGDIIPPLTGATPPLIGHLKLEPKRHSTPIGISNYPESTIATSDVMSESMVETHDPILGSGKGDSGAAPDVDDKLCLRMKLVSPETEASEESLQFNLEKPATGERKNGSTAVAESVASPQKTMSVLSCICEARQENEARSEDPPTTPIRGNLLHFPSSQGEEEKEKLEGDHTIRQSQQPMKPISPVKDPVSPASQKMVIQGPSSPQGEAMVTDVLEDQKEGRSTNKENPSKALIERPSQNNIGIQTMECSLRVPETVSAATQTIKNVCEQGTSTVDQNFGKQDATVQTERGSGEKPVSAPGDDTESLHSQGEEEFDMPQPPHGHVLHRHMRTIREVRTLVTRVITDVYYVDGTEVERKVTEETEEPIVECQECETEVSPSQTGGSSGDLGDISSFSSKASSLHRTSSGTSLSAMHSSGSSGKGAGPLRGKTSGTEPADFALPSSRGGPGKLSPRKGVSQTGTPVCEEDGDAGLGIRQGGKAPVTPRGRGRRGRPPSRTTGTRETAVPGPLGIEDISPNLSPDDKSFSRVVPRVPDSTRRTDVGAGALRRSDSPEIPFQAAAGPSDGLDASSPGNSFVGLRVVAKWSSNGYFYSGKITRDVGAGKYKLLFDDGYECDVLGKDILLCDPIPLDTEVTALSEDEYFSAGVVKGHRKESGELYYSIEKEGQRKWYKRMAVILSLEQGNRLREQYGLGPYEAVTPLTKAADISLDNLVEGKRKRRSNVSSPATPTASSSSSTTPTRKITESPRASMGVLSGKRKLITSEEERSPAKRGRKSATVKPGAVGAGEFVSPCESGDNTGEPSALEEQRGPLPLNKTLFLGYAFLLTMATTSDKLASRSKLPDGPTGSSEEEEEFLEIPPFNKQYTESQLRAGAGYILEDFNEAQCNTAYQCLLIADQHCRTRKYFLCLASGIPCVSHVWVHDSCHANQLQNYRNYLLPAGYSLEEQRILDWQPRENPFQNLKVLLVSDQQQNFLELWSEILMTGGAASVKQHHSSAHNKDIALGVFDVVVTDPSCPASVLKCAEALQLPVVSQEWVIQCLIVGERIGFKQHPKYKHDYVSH

B1: i53 polypeptide (polypeptide inhibitor of 53BP1) (designed binder)
chain: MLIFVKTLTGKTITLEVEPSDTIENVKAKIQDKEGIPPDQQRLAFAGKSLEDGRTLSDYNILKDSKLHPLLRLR
HDR efficiency (GFP insertion at the HBB locus, CD34-expressing LT-HSPCs, GFP fluorescence): ~1.3 fold
INDEL frequency at the HBB locus relative to RNP+AAV (CD34-expressing LT-HSPCs, TIDE analysis): 1.7 fold
fold increase in HDR at the HBB locus over RNP+AAV alone (CD34-expressing LT-HSPCs, NGS assay): 1.4 fold
fold increase in HDR efficiency over RNP+AAV alone (LT-HSPCs mobilised with Mozobil+GCSF): ~1.5 fold
